{"source": "paper PMC2063960", "about": "(The Journal of Cell Biology, 2007)", "molecular_target": "Myc-tagged dimeric ECDT (Myc-HR-ECDT) (UniProt P12830 731-882)", "sequence (P12830 731-882)": "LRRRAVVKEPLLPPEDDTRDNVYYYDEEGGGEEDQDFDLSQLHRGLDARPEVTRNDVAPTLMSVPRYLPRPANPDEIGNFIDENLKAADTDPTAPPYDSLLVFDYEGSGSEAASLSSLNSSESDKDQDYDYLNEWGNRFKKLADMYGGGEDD", "assay": "co-IP"}
{"binder": "p120-catenin, endogenous in HEK293 cells (natural protein, human (endogenous in HEK293), UniProt O60716 1-968, looked up) MDDSEVESTASILASVKEQEAQFEKLTRALEEERRHVSAQLERVRVSPQDANPLMANGTLTRRHQNGRFVGDADLERQKFSDLKLNGPQDHSHLLYSTIPRMQEPGQIVETYTEEDPEGAMSVVSVETSDDGTTRRTETTVKKVVKTVTTRTVQPVAMGPDGLPVDASSVSNNYIQTLGRDFRKNGNGGPGPYVGQAGTATLPRNFHYPPDGYSRHYEDGYPGGSDNYGSLSRVTRIEERYRPSMEGYRAPSRQDVYGPQPQVRVGGSSVDLHRFHPEPYGLEDDQRSMGYDDLDYGMMSDYGTARRTGTPSDPRRRLRSYEDMIGEEVPSDQYYWAPLAQHERGSLASLDSLRKGGPPPPNWRQPELPEVIAMLGFRLDAVKSNAAAYLQHLCYRNDKVKTDVRKLKGIPVLVGLLDHPKKEVHLGACGALKNISFGRDQDNKIAIKNCDGVPALVRLLRKARDMDLTEVITGTLWNLSSHDSIKMEIVDHALHALTDEVIIPHSGWEREPNEDCKPRHIEWESVLTNTAGCLRNVSSERSEARRKLRECDGLVDALIFIVQAEIGQKDSDSKLVENCVCLLRNLSYQVHREIPQAERYQEAAPNVANNTGPHAASCFGAKKGKDEWFSRGKKPIEDPANDTVDFPKRTSPARGYELLFQPEVVRIYISLLKESKTPAILEASAGAIQNLCAGRWTYGRYIRSALRQEKALSAIADLLTNEHERVVKAASGALRNLAVDARNKELIGKHAIPNLVKNLPGGQQNSSWNFSEDTVISILNTINEVIAENLEAAKKLRETQGIEKLVLINKSGNRSEKEVRAAALVLQTIWGYKELRKPLEKEGWKKSDFQVNLNNASRSQSSHSYDDSTLPLIDRNQKSDKKPDREEIQMSNMGSNTKSLDNNYSTPNERGDHNRTLDRSGDLGDMEPLKGTTPLMQDEGQESLEEELDVLVLDDEGGQVSYPSMQKI", "values": [{"measurement": "fold affinity against the monomer (Myc-ECDT)", "value": "~10", "unit": "fold"}]}
